Data as given in the supplement of paper PMC12764529.
± gives the half width of the 95% confidence interval.

Test: folding stability dG unfold (combined trypsin and chymotrypsin); higher = more stable
Outline: (§1)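 K50 was inferred by Bayesian fitting of sequencing counts obtained after protease digestion of designed mini-proteins. Unfolding free energy was derived by comparison with a sequence-predicted unfolded-state K50 and a shared folded-state K50, for each protease or both combined. The mini-proteins were under 80 residues, had no cysteine, were carried in a PA-tagged cDNA display construct, and were kept only if AlphaFold2 dimer inter-PAE exceeded 15.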

| Sequence | folding stability dG unfold [kcal/mol] |
| --- | --- |
| SAKKITLTPPNGKKITITVHPDGSITITYEKGKITLPGHPGAKIKKATVDPKKGYITIIVNDKPIVIPISAG [r14_276_TrMRF] | 2.39 ± 0.12 |
| SAGGSAGGSAGGSMPENLVTITTETTVVKSPLANPVNESPVWEVEVISSPVTVVPPSLLSAGGSAGGSAGGS [r4_417_JUSTAS] | 0.812 ± 0.1 |
| SAGGSAGGSGMMYKVTVEIYNPANGEKIGTIEREVTSEEEAKAEIEKELPLENVKVKITIEGPSAGGSAGGS [r12_578_JUSTAS] | 0.983 ± 0.25 |
| SAGGSAKIPVMFMIESPEQIIELVDEFAPPGHEVKVKIDNVEPFPMREDGEERPYYMFRVTIEFPPSAGGSA [r15_95_TrROS] | 1.78 ± 0.14 |
| SAGGEIPPNAKIDELEISPGSGYIRIKVEFYDPDGKPIWKMTITIPIKPVPRPSPEDQKEQNKKNKKSAGGS [r16_697_TrROS] | 2.39 ± 0.67 |
| SAGMEAIRKKAEELAKKGKIFKITLTGPDGIPETKILSPEEFKKFLEEFPDPEAIASVEVEAYEPGKPISAG [r5_957_JUSTAS] | 3.24 ± 0.1 |
| SAGPVVTLTVTVEIEVDGVRVEVTVTATLLPDGTVVITATVKVTLPNGETKTVTVTLTFPPGVDEVVLTSAG [r5_829_TrROS_Hall] | 3.06 ± 0.25 |
| SAGGSITVSEDESNLTFTIPVPPTEPLTPEEVRAAAEALLAELGPDIRVLSIERLPDGGYRVEAEVRSAGGS [r8_103_JUSTAS] | 1.87 ± 0.037 |
| SAGMKITYKRPDGTPAEPIPEEEIKKLAEEKAKELYPNKPDATVTVTITIKTNNNEPLIITMTVTIKNESAG [r5_526_JUSTAS] | 1 ± 0.38 |
| SAGAVEKLRKELEELGYEVELEEVEDEETGKTYFILRIRNPDGEIYEIKVDKKTGEIVEIFKVDNLEELSAG [r5_938_TrROS_Hall] | 4.14 ± 0.19 |
| SAGEKEFEIVEVKVNKETNEVYFLVRDKEKNRLIKVHSNGTVEIYDLKDPGKKITINMSLEELLALLKKSAG [r5_491_TrROS_Hall] | 4.08 ± 0.19 |
| SAGGPPNYRIKIEYYPPNGMITVELPFDSPDELLDEIRELPGLPVEPDNDGTIIIMFPNHMIKIDIWKSAGG [r13_143_TrROS] | 2.51 ± 0.11 |
| SAGPEKVREAARELFEKLNLPIVSEEAIEVGDAVLIRFEIPEIGTKITILAPVFENGEIKVIVKIEPVSSAG [r5_888_TrMRF] | 1.65 ± 0.091 |
| SAGGEMVEIVVKFKTKEELEAAIRAALPPGATVEVTVEEKDGELYLTITVPKENAERLREALKKALESAGGS [r16_43_TrROS_Hall] | 4.57 ± 0.28 |
| SAGSPVVIKVSKVDSSGNWTLLEEIPIPPSEVSGVELVGDSLKILPPGSGGSYTFTIENSTVTVSIEESAGG [r19_408_JUSTAS] | 0.933 ± 0.06 |
| SAKKLIIKVEVETFDEETGELKTEERTIEADTLEDALAEIERELPPGARVRIEVFDADGKLVETIEIELSAG [r14_234_TrROS_Hall] | 3.92 ± 0.15 |
| SMKEVEKREFPDGTTVTFSKSSSPVITIKVTTYSPVPNTSELSSSESTYTFPLPPGKPLTLEEVLKKVLESA [r9_614_JUSTAS] | 1.02 ± 0.13 |
| SAGGMIRVEDTSTSVSIDIEITPLPNGQYKATITTTTTSAKLLPNGTPVTTTTPTTSTVTITPDVPLLSAGG [r13_561_JUSTAS] | 1.12 ± 0.14 |
| SAGGMITLTTKTELIGSYRVTYSVTVDPVDDSVVTSTHVTVTPLPPPPPPLPPVPPENPVLPSPRLESAGGS [r8_234_JUSTAS] | 0.608 ± 0.2 |
| SAMKKLTEEEIEKLAKELAKEGKVEIKIKVEKKVVKNKNGKKKEVTKVKIEIKAPPEAKKKLEKLKKKLSAG [r14_628_TrROS_Hall] | 0.359 ± 0.79 |
| SAGGSAGGSPYTIMYPIPGDTVEEVKDIAKEIMEHFPNFKITVSVEPPKDGQYWVTIELEMPDSAGGSAGGS [r12_425_TrROS] | 2.09 ± 0.15 |

Test: folding stability dG unfold from trypsin proteolysis; higher = more stable
Outline: as §1

| Sequence | folding stability dG unfold [kcal/mol] |
| --- | --- |
| SAGGSAGGSLTIRFPEELSPEEAVELAEGLVRELFPEDVPVTVTVVFYDPETGEELTIPAELASAGGSAGGS [r12_1051_TrMRF] | 1.49 ± 0.039 |
| SAGGRGEGTMNDPEGGRVYKSEYDPGDGQAEIEPKPVPPVPPIDAEELAEELEQKNGLPNDDVEDMLGSAGG [r13_824_TrROS] | -0.336 ± 0.084 |
| SAGGSAGGPLVVGRGTFPDGFTADAELRVPDSSETFYRTIEPGASLDEIPENYEVANITLSPAGSAGGSAGG [r6_758_TrMRF] | -0.289 ± 0.12 |
| SAGGMKITITLTVKNEELLEELKKLAEELGLKVKIEVKYDEETNELTVTVEIELPPPPEEPSEEELKSAGGS [r16_262_TrROS_Hall] | 2.49 ± 0.12 |
| SAGMTVTVTLNYPTPGGPVTVRVLRGDEEEVVTVPPTETLTITVTLDPDSGATIEVFFPDGSSKTYPLGSAG [r5_187_JUSTAS] | 2.81 ± 0.1 |
| SAGGSAGGSMIVKLEDGTYLVRIVNKDTKEVIEIEVSAEEAEELAKELNIEKVEIVKAGEPLESAGGSAGGS [r12_294_TrROS_Hall] | 1.78 ± 0.069 |
| SALEEEVKKRAEEIAQEIKEKFPNVKEKVVEIELPLPNGTKLKATVTISRSINEKGIEYKIKIEVSEGLSAG [r14_788_JUSTAS] | 3.22 ± 0.081 |
| SAGGSAGGMTLVLEGMSEEELEELARKLRELAEELGLKVKITVERREDGRVRLTVEIELPEELPSAGGSAGG [r6_906_TrROS_Hall] | 4.36 ± 0.26 |
| SAGNDEEDQKKAEEQQKPPLEIEPIRVMVMVPFPGGDLLISITIPIIKYPDGGIIIPIPIEIIPLEDISAGG [r19_11_TrROS] | 2.06 ± 0.093 |
| SAGGSAGGSKEIVIKVNVSEEDLKEKAEELLKKLEELLPPGAKIKKIEIEYDEETGELVIKIESAGGSAGGS [r12_308_TrROS_Hall] | 2.49 ± 0.22 |
| SAGGSAGGSAGGLPPDVRLRVRITRPDGTVLEFDAPADVEIFFPDVPPEWRIEVDAEDVSAGGSAGGSAGGS [r10_774_TrMRF] | 0.732 ± 0.061 |
| SAGGSAGGSYYPIEDPNGMKIWVEPDPDNGMYRIRIQFPEGKKVERTFPPGMPLDDIPIKIKDSAGGSAGGS [r12_261_TrROS] | 0.688 ± 0.094 |
| SAGGSAGGSADPNAFPITIFTFKMEIEDVEKTPNGQPELRYKMEVVEIRPIWLPPDDLEDLSAGGSAGGSAG [r3_121_TrROS] | 3 ± 0.16 |
| SAGGTMKYDVEQKYKYPDPDGNPGGEGKHTQEVEVPPPPVIIIPPNDRELAKELAEKFGIPITPDDIASAGG [r19_315_TrROS] | 0.854 ± 0.18 |
| SAGGSVTLPDATVVKVPPSQDWQEHADRLAAEIREAGADYEVSVESTPDGSVLITITVPGRTWTMVTSAGGS [r16_771_JUSTAS] | 1.15 ± 0.032 |
| SAGGSAGGSAGKPTLKLVLKFDSPEQAKAAAEALAKAGYKVKVELKEYPDGLYLVVTVEPSAGGSAGGSAGG [r11_677_TrROS_Hall] | 3.29 ± 0.12 |
| SAGGSAGGSAGMKKVLIIGGPKEELAKELKEKSPDIEVEFLDPSEDLEEYKKKFDIVIIESAGGSAGGSAGG [r17_225_JUSTAS] | -0.387 ± 0.09 |
| SAGGSAGGSPSEEARKKGGLTLTITLRYPDGSTVTITYPVSTPLTIPEEFAKNPPKIESIELSSAGGSAGGS [r12_161_JUSTAS] | 1.23 ± 0.019 |
| SAGGSANGKRVEVPITIFFYRRDPEDGKWEPIFPFEIPIRIPVPPGAEVTIEIEFTGNMFRITIEVSAGGSA [r15_537_TrROS] | 3.19 ± 0.11 |
| SAGGSAGGSAGGPMPVSVSPIGTKVEKTEEPLVVETTTTLSDAEGPPVTTTTTTVTPPSTSAGGSAGGSAGG [r11_129_JUSTAS] | 1.27 ± 0.08 |
| SAMTLTLTVPPGAKVRVRITNENGETTEIEVEPGETVTITLPAGSTVRVEVEVVDPDGRKRTETFTLKPSAG [r14_568_TrROS_Hall] | 3.46 ± 0.11 |

| Sequence | folding stability dG unfold [kcal/mol] |
| --- | --- |
| SAKKITLTPPNGKKITITVHPDGSITITYEKGKITLPGHPGAKIKKATVDPKKGYITIIVNDKPIVIPISAG [r14_276_TrMRF] | 1.66 ± 0.044 |
| SAGGSAGGSAGGSMPENLVTITTETTVVKSPLANPVNESPVWEVEVISSPVTVVPPSLLSAGGSAGGSAGGS [r4_417_JUSTAS] | 1.25 ± 0.087 |
| SAGGSAGGSGMMYKVTVEIYNPANGEKIGTIEREVTSEEEAKAEIEKELPLENVKVKITIEGPSAGGSAGGS [r12_578_JUSTAS] | 0.846 ± 0.084 |
| SAGGSAKIPVMFMIESPEQIIELVDEFAPPGHEVKVKIDNVEPFPMREDGEERPYYMFRVTIEFPPSAGGSA [r15_95_TrROS] | 1.64 ± 0.07 |
| SAGGEIPPNAKIDELEISPGSGYIRIKVEFYDPDGKPIWKMTITIPIKPVPRPSPEDQKEQNKKNKKSAGGS [r16_697_TrROS] | 1.36 ± 0.18 |
| SAGMEAIRKKAEELAKKGKIFKITLTGPDGIPETKILSPEEFKKFLEEFPDPEAIASVEVEAYEPGKPISAG [r5_957_JUSTAS] | 2.35 ± 0.1 |
| SAGPVVTLTVTVEIEVDGVRVEVTVTATLLPDGTVVITATVKVTLPNGETKTVTVTLTFPPGVDEVVLTSAG [r5_829_TrROS_Hall] | 2.62 ± 0.15 |
| SAGGSITVSEDESNLTFTIPVPPTEPLTPEEVRAAAEALLAELGPDIRVLSIERLPDGGYRVEAEVRSAGGS [r8_103_JUSTAS] | 2.08 ± 0.033 |
| SAGMKITYKRPDGTPAEPIPEEEIKKLAEEKAKELYPNKPDATVTVTITIKTNNNEPLIITMTVTIKNESAG [r5_526_JUSTAS] | 0.982 ± 0.054 |
| SAGAVEKLRKELEELGYEVELEEVEDEETGKTYFILRIRNPDGEIYEIKVDKKTGEIVEIFKVDNLEELSAG [r5_938_TrROS_Hall] | 3.83 ± 0.17 |
| SAGEKEFEIVEVKVNKETNEVYFLVRDKEKNRLIKVHSNGTVEIYDLKDPGKKITINMSLEELLALLKKSAG [r5_491_TrROS_Hall] | 2.49 ± 0.16 |
| SAGGPPNYRIKIEYYPPNGMITVELPFDSPDELLDEIRELPGLPVEPDNDGTIIIMFPNHMIKIDIWKSAGG [r13_143_TrROS] | 2.18 ± 0.067 |
| SAGPEKVREAARELFEKLNLPIVSEEAIEVGDAVLIRFEIPEIGTKITILAPVFENGEIKVIVKIEPVSSAG [r5_888_TrMRF] | 1.71 ± 0.069 |
| SAGGEMVEIVVKFKTKEELEAAIRAALPPGATVEVTVEEKDGELYLTITVPKENAERLREALKKALESAGGS [r16_43_TrROS_Hall] | 4.2 ± 0.28 |
| SAGSPVVIKVSKVDSSGNWTLLEEIPIPPSEVSGVELVGDSLKILPPGSGGSYTFTIENSTVTVSIEESAGG [r19_408_JUSTAS] | 0.465 ± 0.038 |
| SAKKLIIKVEVETFDEETGELKTEERTIEADTLEDALAEIERELPPGARVRIEVFDADGKLVETIEIELSAG [r14_234_TrROS_Hall] | 4.41 ± 0.23 |
| SMKEVEKREFPDGTTVTFSKSSSPVITIKVTTYSPVPNTSELSSSESTYTFPLPPGKPLTLEEVLKKVLESA [r9_614_JUSTAS] | 0.54 ± 0.035 |
| SAGGMIRVEDTSTSVSIDIEITPLPNGQYKATITTTTTSAKLLPNGTPVTTTTPTTSTVTITPDVPLLSAGG [r13_561_JUSTAS] | 1.47 ± 0.053 |
| SAGGMITLTTKTELIGSYRVTYSVTVDPVDDSVVTSTHVTVTPLPPPPPPLPPVPPENPVLPSPRLESAGGS [r8_234_JUSTAS] | 0.355 ± 0.15 |
| SAMKKLTEEEIEKLAKELAKEGKVEIKIKVEKKVVKNKNGKKKEVTKVKIEIKAPPEAKKKLEKLKKKLSAG [r14_628_TrROS_Hall] | 0.415 ± 0.34 |
| SAGGSAGGSPYTIMYPIPGDTVEEVKDIAKEIMEHFPNFKITVSVEPPKDGQYWVTIELEMPDSAGGSAGGS [r12_425_TrROS] | 1.87 ± 0.11 |
